Assay results reported in patent US8840891 (RSR, dated 2014).

Assays:
TSHR coated onto tubes [1] = target: T1, TSHR coated onto tubes (human, UniProt P16473 21-764, limits assumed); test: TSHR coated tubes, competitor 125I-M22 IgG
T1 construct: whole entry named; also called TSHR coated tubes; thyrotropin receptor

TSHR coated onto tubes [2] = target: T1, TSHR coated onto tubes; test: TSHR coated tubes, competitor 125I-5C9 IgG
TSHR coated onto tubes [3] = target: T1, TSHR coated onto tubes; test: TSHR coated tubes, competitor 125I-TSH
[4] = target: human TSHR, wild type, expressed on CHO cells (human) (UniProt P16473); test: cell-based or functional assay
[5] = target: human TSHR (wild type) expressed in CHO cells (human) (UniProt P16473); test: cell-based or functional assay

% inhib of 125I-M22 IgG binding at 0.01 µg/mL (TSHR coated onto tubes [1]) [%] | % inhib of 125I-M22 IgG binding at 0.1 µg/mL (TSHR coated onto tubes [1]) [%] | % inhib of 125I-M22 IgG binding at 1 µg/mL (TSHR coated onto tubes [1]) [%] | % inhib of 125I-M22 IgG binding at 10 µg/mL (TSHR coated onto tubes [1]) [%] | % inhib of 125I-M22 IgG binding at 100 µg/mL (TSHR coated onto tubes [1]) [%] | % inhib of 125I-5C9 IgG binding at 0.01 µg/mL (TSHR coated onto tubes [2]) [%] | % inhib of 125I-5C9 IgG binding at 0.1 µg/mL (TSHR coated onto tubes [2]) [%] | % inhib of 125I-5C9 IgG binding at 1 µg/mL (TSHR coated onto tubes [2]) [%] | % inhib of 125I-5C9 IgG binding at 10 µg/mL (TSHR coated onto tubes [2]) [%] | % inhib of 125I-5C9 IgG binding at 100 µg/mL (TSHR coated onto tubes [2]) [%] | % inhib of 125I-TSH binding at 0.01 µg/mL (TSHR coated onto tubes [3]) [%] | % inhib of 125I-TSH binding at 0.1 µg/mL (TSHR coated onto tubes [3]) [%] | % inhib of 125I-TSH binding at 1 µg/mL (TSHR coated onto tubes [3]) [%] | % inhib of 125I-TSH binding at 10 µg/mL (TSHR coated onto tubes [3]) [%] | % inhib of 125I-TSH binding at 100 µg/mL (TSHR coated onto tubes [3]) [%] | Binder | further results
3 | 15 | 37 | 60 | 62 | 1 | 10 | 35 | 50.5 | 63 | 4 | 12.5 | 37 | 52 | 57 | 14D3 IgG (antibody, V domains shown) VH: DVQMQQPGPELVKPGASLKMSCKASGYSFTGYNMHWVKQSHGKSLEWIGYIDPYSGATSYNQKFEGKATLTVDKSSSTAYMQLNSLTSEDSAVYYCARRWDWDPYAMDYWGQGTSVTVSS VL: NILMTQSPAILSVSPGERVSFACRASQSIGTSIHWYQQRTNGSPRLLIKYASESISGIPSRFSGSGSGTDFTLSINSVESEDIADYYCQQTNRWPLTFGAGTKLELKR | –
12 | 22 | 40 | 51 | 53 | 20 | 34 | 47 | 53 | 59 | 9 | 26 | 39 | 44 | 48 | 16E5 IgG (antibody, V domains shown) VH: DVQLVQSGPELVKPGASVKMSCKASGYSFTGYNMHWVKQSHGKSLEWIGYIDPYNGATSYNQKFEDKATLTVDKSSSTAYMQLNSLTSEDSAVYYCARRWDWDPYAMDYWGQGTSVTVSS VL: DILLTQSPAILSVSPGERVSFSCRASQSIGTSIHWYQQRTNGSPRLLIKYASESISGIFSRFSGSGSGTDFTLTINSVESEDIADYYCQQSNRWPLTFGAGTKLELKR | –
1 | 13 | 24 | 39 | 49 | 3 | 11 | 26 | 43 | 55 | 3 | 7 | 24 | 43 | 56 | 17D2 IgG (antibody, V domains shown) VH: DVQIQQSGPELVKPGASVKMSCKASGYSFTAYNMHWVKQTHGKSLEWIGYIDPYSGATSYHQKFKGKATLTVDKSSSTAYMRLNSLTSEDSAVYYCARRWDWDPYAMDYWGQGTSVTVSS VL: SVEMSQSPAILSVSPGERISFSCRASQSIGTSIHWYQQRTNGSPRLLIKYASASISGIPSRFSGSGSGTDFTLSINSVESEDIADYYCQQSNSWPLTFGAGTKLELKR | –
1 | 12 | 9 | 19 | 30 | 8 | 23 | 42 | 48 | 72 | 13.5 | 56 | 82 | 85 | 88.5 | 2B4 IgG (antibody, V domains shown) VH: DVQLQQSGTVLARPGASVRMSCKASGYSFTRYWIHWLKQRPGQGLEWIGAIFPGNRDTSYNQRFKGKAEVTAVTSASTAYLDLSSLTNEDSAVYYCTRWPYYGSIYVNFDYWGQGTTLTVSS VL: DIVMTQSPLSLPVSLGDQASISCRTSQNLVHRNGNTYLHWYLQKPGQSPKLLIYKISNRFSGVPDRFSGSGSGTDFTLKISRVEAEDLGVYFCSQGTHVPPTFGGGTKLEIKR | –
– | – | – | – | – | – | – | – | – | – | – | – | – | – | – | 5C9 Fab (Fab, from another filing, V domains shown) VH: EVQLVESGGGLIQPGGSLRLSCAASGFTVSSNYMSWVRQAPGKGLEWVSVTYSGGSTSYADSVKGRFTISRDNSKNTLYLQMNSLRAEDTAVYYCARGGRYCSSISCYARSGCDYWGQGTLVTVSS VL: AIQMTQSPSSLSASVGDRVTITCRASQSISNYLNWYQQKPGKAPKLLIYAASSLQSGVPSRFSGSGSGTDFTLTISSLQPEDFATYYCQQSYSSPSTTFGQGTKLEIK | % inhibition of basal cyclic AMP production; Exp 3; 5C9 F(ab′) 0.001 µg/mL [4]: 3%; % inhibition of basal cyclic AMP production; Exp 3; 5C9 F(ab′) 0.1 µg/mL [4]: 19%; % inhibition of basal cyclic AMP production; Exp 3; 5C9 F(ab′) 1 µg/mL [4]: 23%; % inhibition of basal cyclic AMP production; Exp 3; 5C9 F(ab′) 10 µg/mL [4]: 39%; % inhibition of basal cyclic AMP production; Exp 3; 5C9 F(ab′) 100 µg/mL [4]: 48%; % inhibition of basal cyclic AMP production; Exp 3; 5C9 Fab 0.1 µg/mL [4]: 11%; % inhibition of basal cyclic AMP production; Exp 3; 5C9 Fab 1 µg/mL [4]: 39%; % inhibition of basal cyclic AMP production; Exp 3; 5C9 Fab 10 µg/mL [4]: 46%; % inhibition of basal cyclic AMP production; Exp 3; 5C9 Fab 100 µg/mL [4]: 61%; cyclic AMP; Example 1; 5C9 Fab 10 µg/mL + TSH (fmol/cell well) [5]: 1280; cyclic AMP; Example 1; 5C9 Fab 100 µg/mL + TSH (fmol/cell well) [5]: 938; cyclic AMP; Example 1; 5C9 Fab 100 µg/mL only (fmol/cell well) [5]: 235; cyclic AMP; Example 2; 5C9 Fab 10 µg/mL + TSH (fmol/cell well) [5]: 4130; cyclic AMP; Example 2; 5C9 Fab 100 µg/mL + TSH (fmol/cell well) [5]: 867; cyclic AMP; Example 2; 5C9 Fab 100 µg/mL only (fmol/cell well) [5]: 212
